Reference: PMC11672684 (Cell Reports, 2024)

Columns and labels:
[1] = biological target: T1, H1 A/New Caledonia/20/1999 HA (influenza A virus A/New …); experiment: ELISA + BLI; conditions: both partners purified
[2] = biological target: T1, H1 A/New Caledonia/20/1999 HA; experiment: cryo-EM structure; conditions: both partners purified

Binder | binding result [1] | binding result [2]
43_S0008 (antibody, V domains shown, also called mAb 43_S0008; IGHV1-69 + IGHD3-9 mAb 43_S0008; source: Expi293 cells, purified (protein A)) VH: QVQLVQSGAEVKKPGSSVKVSCKASGGTFRTFGISWVRQAPGQGLEWMGWIIPIIGTPNYAQKFQGRVIITADESSNTAYMELNSLKSEDTAVYYCAKEGRALLRYFDWLPLDAFDIWGQGTMVTVSS VL: DIVLTQTPLSLPVSLGDQASISCRSSQSLVHSDGNTYLHWYLQKPGQSPKLLIYKVSNRFSGVPDRFSGSGSGTDFTLKISRVEAEDLGVYFCSQSTHVPPLTFGAGTKLELK | binds | –
Fab 43_S0008 (Fab, V domains shown, also called 43_S0008 Fab) VH: QVQLVQSGAEVKKPGSSVKVSCKASGGTFRTFGISWVRQAPGQGLEWMGWIIPIIGTPNYAQKFQGRVIITADESSNTAYMELNSLKSEDTAVYYCAKEGRALLRYFDWLPLDAFDIWGQGTMVTVSS VL: DIVLTQTPLSLPVSLGDQASISCRSSQSLVHSDGNTYLHWYLQKPGQSPKLLIYKVSNRFSGVPDRFSGSGSGTDFTLKISRVEAEDLGVYFCSQSTHVPPLTFGAGTKLELK | – | binds
